This is an account of results in the supplement of paper PMC10724198.

± gives the standard deviation of the averaged measurements.
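Further: PSI is a weighted mean of sequencing reads over stability bins, variants kept only with over 10 reads, mCherry proximal and sfGFP distal, peptide attached via GGGS linker.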

The series deals with Saccharomyces cerevisiae. Put plainly: protein stability index of tFT-peptide fusion (C-terminal peptide) (PSI (0-1 scale)); higher = more stable (slower turnover). As to conditions: genetic background: wild type; temperature: 30 C.
As to SPVRRGRCRLSG, the protein stability index is 0.728 ± 0.1.
Regarding SQFGLGCCQRST, the protein stability index was 0.723 ± 0.069.
In turn, SQGAGKCIIIAA showed a protein stability index of 0.561 ± 0.015.
Under SQGSTLRGIEEP stands 0.661 ± 0.048; under SRAARLLPKLLI, 0.589 ± 0.055.
Under SRAPRDVFSPPM stands 0.72 ± 0.019; under SRASPPCSLLSS, 0.696 ± 0.051.
Under SRCRASMPPLRA stands 0.684 ± 0.034; under SRERRPKVFILR, 0.669 ± 0.027; under SRETRRRENPAK, 0.677 ± 0.19.
In the case of SRFAAGSRVLFL, the protein stability index came to 0.758 ± 0.044.
SRFSRLHPAFPV displayed a protein stability index of 0.759 ± 0.014.
SRGLPRLLCPPP gave a protein stability index of 0.747 ± 0.025.
SRGLVRGPMSGR returned a protein stability index of 0.661 ± 0.053.
Under SRGRSFFAGVGG stands 0.722 ± 0.042; under SRGVSRGGGEVF, 0.651 ± 0.027.
Under SRGWCGRVVWGK stands 0.729 ± 0.01.
Under SRHFPLGTVHVP stands 0.756 ± 0.065; under SRHRVGLPIQIF, 0.526 ± 0.022; under SRKIRTTLQESK, 0.7219 ± 0.0071.
In turn, SRLGVGGGLCSW yielded a protein stability index of 0.714 ± 0.11.
Under SRLKAPADTDPN stands 0.7 ± 0.015; under SRLSPPFPLFSL, 0.505 ± 0.036.
Under SRMRRGCTGCEC stands 0.671 ± 0.061; under SRPPLLLLSSGA, 0.6583 ± 0.0059.
Under SRPRLSDLFPPP stands 0.706 ± 0.11.
SRRVSVSTSWNP registered a protein stability index of 0.718 ± 0.014.
SRSCCPGVRVRF displayed a protein stability index of 0.709 ± 0.03.
Under SRSCRHGELKFA stands 0.718 ± 0.0097.
As to SRSGASLRAARG, the protein stability index worked out at 0.722 ± 0.043.
Under SRSGVSTRGVPC stands 0.709 ± 0.0073.
In turn, SRSWLPPVFPRV had a protein stability index of 0.807 ± 0.059.
Under SRTLLRVSHLSL stands 0.699 ± 0.02; under SRVAEIERVQWL, 0.655 ± 0.038; under SRVQYVLDRSVF, 0.649 ± 0.0099.
As to SRVTGPGRADGT, the protein stability index came out at 0.691 ± 0.011.
In turn, SRVTVLGGWRRG returned a protein stability index of 0.701 ± 0.034.
Under SRWFEFSFLSQV stands 0.707 ± 0.049; under SRYERLFSDNRG, 0.718 ± 0.019; under SSALPPLLAFFL, 0.6808 ± 0.0046.
SSALSLVSSFLP gave a protein stability index of 0.705 ± 0.05.
In turn, SSASLIPPPPVP yielded a protein stability index of 0.693 ± 0.053.
Under SSCRHYRSPINH stands 0.764 ± 0.069.
Regarding SSDLSNVQTQRL, the protein stability index was 0.708 ± 0.065.
Under SSFFTTGAPRPP stands 0.674 ± 0.061; under SSGFVWVGVCVG, 0.5 ± 0.0069.
SSGRRFVVVVQG came in with a protein stability index of 0.572 ± 0.026.
SSGSLITIASPF returned a protein stability index of 0.745 ± 0.024.
Under SSHHGSSEDDHQ stands 0.6597 ± 0.001.
Under SSHHYSCPLVDT stands 0.667 ± 0.058; under SSIHSLRQVISI, 0.614 ± 0.051.
For the sequence SSLDTPSFDSSL, the protein stability index was 0.675 ± 0.018.
Under SSLLSPLRSAFL stands 0.71 ± 0.066.
Under SSLMGGLSAYPG stands 0.694 ± 0.011; under SSLNLLIHTAPL, 0.739 ± 0.023.
With SSLSFAPAPPFV, the protein stability index is 0.698 ± 0.035.
Under SSPEYIRNIQRS stands 0.62 ± 0.029; under SSPGFCRVFVFF, 0.491 ± 0.018; under SSPHRFLCLPPP, 0.639 ± 0.061.
Under SSPLPLPLHPPP stands 0.7146 ± 0.0062; under SSPPRSLLSKSF, 0.722 ± 0.017; under SSPSALSLLLSV, 0.6876 ± 0.0049.
SSPSPSPPHLHP showed a protein stability index of 0.712 ± 0.02.
The sequence SSQVELPVSVVW displayed a protein stability index of 0.649 ± 0.058.
Under SSRGVTRRRLRE stands 0.724 ± 0.15; under SSRPLISTLTPY, 0.661 ± 0.014; under SSRSMKKKKVKI, 0.7034 ± 0.0027.
Under SSRVSLSTVCLL stands 0.585 ± 0.019; under SSSAPLPPSLPL, 0.791 ± 0.16.
Turning to SSSEGNRGSLQY, the protein stability index turned out to be 0.774 ± 0.041.
For SSSPPPPPPSPS, the protein stability index came out at 0.75 ± 0.12.
Sequence SSTALVFRLICL had a protein stability index of 0.63 ± 0.016.
Under SSVNRPTSWTKA stands 0.739 ± 0.024; under SSWRVPLSVLPI, 0.67 ± 0.014; under STELQKMPQIEY, 0.722 ± 0.11.
Under STKQTTTTERAI stands 0.67 ± 0.013; under STPDRFVSRGRQ, 0.702 ± 0.043; under STPPGTPGISRQ, 0.723 ± 0.079.
Under STPPLSLRPLLR stands 0.608 ± 0.055; under STPSPLTLPPLP, 0.695 ± 0.024.
